The source of these data is patent US20160272683A1 (Novo Nordisk, published 2016).

Numbered stars: 1 amine (or outer) side, 2 acyl side, 3 side chain; on linkers, the order of the positions; unused ones are H or OH. Side chains are listed from the residue outwards. Ends that are not written are not given here. * marks the point of attachment. C20 diacid = O=C(O)CCCCCCCCCCCCCCCCCCC(=O)*; C18 diacid = O=C(O)CCCCCCCCCCCCCCCCC(=O)*; C16 diacid = O=C(O)CCCCCCCCCCCCCCC(=O)*; γGlu = O=C(O)[C@H](CCC(=O)[*:2])N[*:1]; C14 diacid = O=C(O)CCCCCCCCCCCCC(=O)*; AEEA = NCCOCCOCC(=O)O

The target of test [1] is T1, human amylin 3(a) receptor (human calcitonin receptor co-expressed with RAMP-3) on BHK570/CRE-luc cells (human, UniProt P30988 25-474; O60896 24-148).
T1 sequence (looked up) 1: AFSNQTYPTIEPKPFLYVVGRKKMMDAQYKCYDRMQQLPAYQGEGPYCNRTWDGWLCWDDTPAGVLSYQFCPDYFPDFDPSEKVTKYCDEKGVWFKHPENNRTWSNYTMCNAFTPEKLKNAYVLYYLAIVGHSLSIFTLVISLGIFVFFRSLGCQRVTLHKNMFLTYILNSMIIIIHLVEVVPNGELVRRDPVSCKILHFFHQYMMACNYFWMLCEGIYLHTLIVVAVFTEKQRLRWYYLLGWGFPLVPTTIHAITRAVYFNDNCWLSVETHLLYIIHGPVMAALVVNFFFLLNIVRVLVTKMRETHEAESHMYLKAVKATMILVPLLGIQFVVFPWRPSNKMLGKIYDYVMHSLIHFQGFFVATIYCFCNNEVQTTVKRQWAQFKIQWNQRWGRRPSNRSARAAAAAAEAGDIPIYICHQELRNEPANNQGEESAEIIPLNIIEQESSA
T1 sequence (looked up) 2: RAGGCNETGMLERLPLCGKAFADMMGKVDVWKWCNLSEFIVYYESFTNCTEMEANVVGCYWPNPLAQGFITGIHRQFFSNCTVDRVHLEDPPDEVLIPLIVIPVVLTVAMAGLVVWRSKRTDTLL
The test can be described thus: cell-based or functional assay.

Test [2] concerns the target T2, human calcitonin receptor on BHK570/CRE-luc cells (human, UniProt P30988 25-474).
T2 sequence (looked up): T1 sequence (looked up) 1
The test can be described thus: cell-based or functional assay.

B1: [des1, 16K(C20 diacid-gGlu), 30S, 31G]mimylin (peptide)
peptide: ASELSTAALGRLSAK([γGlu-C20 diacid])LHELATLPRTETGSGSP-NH2
modifications: N-terminus assumed
SMILES: CC(C)C[C@H](NC(=O)[C@H](C)NC(=O)[C@H](C)NC(=O)[C@@H](NC(=O)[C@H](CO)NC(=O)[C@H](CC(C)C)NC(=O)[C@H](CCC(=O)O)NC(=O)[C@H](CO)NC(=O)[C@H](C)N)[C@@H](C)O)C(=O)NCC(=O)N[C@@H](CCCNC(=N)N)C(=O)N[C@@H](CC(C)C)C(=O)N[C@@H](CO)C(=O)N[C@@H](C)C(=O)N[C@@H](CCCCNC(=O)CC[C@H](NC(=O)CCCCCCCCCCCCCCCCCCC(=O)O)C(=O)O)C(=O)N[C@@H](CC(C)C)C(=O)N[C@@H](Cc1c[nH]cn1)C(=O)N[C@@H](CCC(=O)O)C(=O)N[C@@H](CC(C)C)C(=O)N[C@@H](C)C(=O)N[C@H](C(=O)N[C@@H](CC(C)C)C(=O)N1CCC[C@H]1C(=O)N[C@@H](CCCNC(=N)N)C(=O)N[C@H](C(=O)N[C@@H](CCC(=O)O)C(=O)N[C@H](C(=O)NCC(=O)N[C@@H](CO)C(=O)NCC(=O)N[C@@H](CO)C(=O)N1CCC[C@H]1C(N)=O)[C@@H](C)O)[C@@H](C)O)[C@@H](C)O
For the molecule B1, the “hAmylin-R funct. EC50 (pM), tested with HSA” value (“hAmylin-R funct. EC50 (pM)” for short) in test [1] amounted to 57 pM. In test [2], the “hCTR funct. EC50 (pM), tested with HSA” value came out at 48 pM.

B2: [N-terminal(C20 diacid-gGlu), des1, 23Y, 30S, 31G]mimylin (peptide)
peptide: {C20 diacid-γGlu}-ASELSTAALGRLSAELHELATYPRTETGSGSP-NH2
SMILES: CC(C)C[C@H](NC(=O)[C@H](C)NC(=O)[C@H](C)NC(=O)[C@@H](NC(=O)[C@H](CO)NC(=O)[C@H](CC(C)C)NC(=O)[C@H](CCC(=O)O)NC(=O)[C@H](CO)NC(=O)[C@H](C)NC(=O)CC[C@H](NC(=O)CCCCCCCCCCCCCCCCCCC(=O)O)C(=O)O)[C@@H](C)O)C(=O)NCC(=O)N[C@@H](CCCNC(=N)N)C(=O)N[C@@H](CC(C)C)C(=O)N[C@@H](CO)C(=O)N[C@@H](C)C(=O)N[C@@H](CCC(=O)O)C(=O)N[C@@H](CC(C)C)C(=O)N[C@@H](Cc1c[nH]cn1)C(=O)N[C@@H](CCC(=O)O)C(=O)N[C@@H](CC(C)C)C(=O)N[C@@H](C)C(=O)N[C@H](C(=O)N[C@@H](Cc1ccc(O)cc1)C(=O)N1CCC[C@H]1C(=O)N[C@@H](CCCNC(=N)N)C(=O)N[C@H](C(=O)N[C@@H](CCC(=O)O)C(=O)N[C@H](C(=O)NCC(=O)N[C@@H](CO)C(=O)NCC(=O)N[C@@H](CO)C(=O)N1CCC[C@H]1C(N)=O)[C@@H](C)O)[C@@H](C)O)[C@@H](C)O
In the case of B2, in test [1], the “hAmylin-R funct. EC50 (pM)” value amounted to 67 pM. The “hCTR funct. EC50 (pM), tested with HSA” value in test [2] was 24 pM.

B3: [N-terminal(C18 diacid), des1, 30S, 31G]mimylin (peptide)
peptide: {C18 diacid}-ASELSTAALGRLSAELHELATLPRTETGSGSP-NH2
For B3, in test [1], the “hAmylin-R funct. EC50 (pM)” value came out at 9 pM. Besides, the “hCTR funct. EC50 (pM), tested with HSA” value in test [2] came to 8 pM.

B4: [des1, 4K(C20 diacid-gGlu), 30S, 31G]mimylin (peptide)
peptide: ASK([γGlu-C20 diacid])LSTAALGRLSAELHELATLPRTETGSGSP-NH2
modifications: N-terminus assumed
SMILES: CC(C)C[C@H](NC(=O)[C@H](C)NC(=O)[C@H](C)NC(=O)[C@@H](NC(=O)[C@H](CO)NC(=O)[C@H](CC(C)C)NC(=O)[C@H](CCCCNC(=O)CC[C@H](NC(=O)CCCCCCCCCCCCCCCCCCC(=O)O)C(=O)O)NC(=O)[C@H](CO)NC(=O)[C@H](C)N)[C@@H](C)O)C(=O)NCC(=O)N[C@@H](CCCNC(=N)N)C(=O)N[C@@H](CC(C)C)C(=O)N[C@@H](CO)C(=O)N[C@@H](C)C(=O)N[C@@H](CCC(=O)O)C(=O)N[C@@H](CC(C)C)C(=O)N[C@@H](Cc1c[nH]cn1)C(=O)N[C@@H](CCC(=O)O)C(=O)N[C@@H](CC(C)C)C(=O)N[C@@H](C)C(=O)N[C@H](C(=O)N[C@@H](CC(C)C)C(=O)N1CCC[C@H]1C(=O)N[C@@H](CCCNC(=N)N)C(=O)N[C@H](C(=O)N[C@@H](CCC(=O)O)C(=O)N[C@H](C(=O)NCC(=O)N[C@@H](CO)C(=O)NCC(=O)N[C@@H](CO)C(=O)N1CCC[C@H]1C(N)=O)[C@@H](C)O)[C@@H](C)O)[C@@H](C)O
Take B4: in test [1], the “hAmylin-R funct. EC50 (pM)” value came out at 74 pM. For the same molecule, the “hCTR funct. EC50 (pM), tested with HSA” value in test [2] came out at 30 pM.

B5: [N-terminal(C18 diacid-gGlu), des1, 30S, 31G]mimylin (peptide)
peptide: {C18 diacid-γGlu}-ASELSTAALGRLSAELHELATLPRTETGSGSP-NH2
Turning to B5, in test [1], the “hAmylin-R funct. EC50 (pM)” value worked out at 26 pM. The “hCTR funct. EC50 (pM), tested with HSA” value in test [2] stood at 11 pM.

B6: [N-terminal(C14 diacid-gGlu), des1, 30S, 31G]mimylin (peptide)
peptide: {C14 diacid-γGlu}-ASELSTAALGRLSAELHELATLPRTETGSGSP-NH2
For B6, the “hAmylin-R funct. EC50 (pM)” value in test [1] amounted to 4 pM. Also, the “hCTR funct. EC50 (pM), tested with HSA” value in test [2] came to 4 pM.

B7: [N-terminal(C14 diacid), des1, 30S, 31G]mimylin (peptide)
peptide: {C14 diacid}-ASELSTAALGRLSAELHELATLPRTETGSGSP-NH2
Take B7: the “hAmylin-R funct. EC50 (pM)” value in test [1] turned out to be 6 pM. For the same molecule, the “hCTR funct. EC50 (pM), tested with HSA” value in test [2] is 4 pM.

B8: [des1, 19K(C20 diacid-gGlu), 30S, 31G]mimylin (peptide)
peptide: ASELSTAALGRLSAELHK([γGlu-C20 diacid])LATLPRTETGSGSP-NH2
modifications: N-terminus assumed
SMILES: CC(C)C[C@H](NC(=O)[C@H](C)NC(=O)[C@H](C)NC(=O)[C@@H](NC(=O)[C@H](CO)NC(=O)[C@H](CC(C)C)NC(=O)[C@H](CCC(=O)O)NC(=O)[C@H](CO)NC(=O)[C@H](C)N)[C@@H](C)O)C(=O)NCC(=O)N[C@@H](CCCNC(=N)N)C(=O)N[C@@H](CC(C)C)C(=O)N[C@@H](CO)C(=O)N[C@@H](C)C(=O)N[C@@H](CCC(=O)O)C(=O)N[C@@H](CC(C)C)C(=O)N[C@@H](Cc1c[nH]cn1)C(=O)N[C@@H](CCCCNC(=O)CC[C@H](NC(=O)CCCCCCCCCCCCCCCCCCC(=O)O)C(=O)O)C(=O)N[C@@H](CC(C)C)C(=O)N[C@@H](C)C(=O)N[C@H](C(=O)N[C@@H](CC(C)C)C(=O)N1CCC[C@H]1C(=O)N[C@@H](CCCNC(=N)N)C(=O)N[C@H](C(=O)N[C@@H](CCC(=O)O)C(=O)N[C@H](C(=O)NCC(=O)N[C@@H](CO)C(=O)NCC(=O)N[C@@H](CO)C(=O)N1CCC[C@H]1C(N)=O)[C@@H](C)O)[C@@H](C)O)[C@@H](C)O
Take B8: the “hAmylin-R funct. EC50 (pM)” value in test [1] was 49 pM. In test [2], the “hCTR funct. EC50 (pM), tested with HSA” value came out at 28 pM.

B9: [N-terminal(C16 diacid), des1, 30S, 31G]mimylin (peptide)
peptide: {C16 diacid}-ASELSTAALGRLSAELHELATLPRTETGSGSP-NH2
Consider B9, for which, in test [1], the “hAmylin-R funct. EC50 (pM)” value stood at 4 pM. The “hCTR funct. EC50 (pM), tested with HSA” value in test [2] is 3 pM.

B10: [N-terminal(C16 diacid-gGlu), des1, 30S, 31G]mimylin (peptide)
peptide: {C16 diacid-γGlu}-ASELSTAALGRLSAELHELATLPRTETGSGSP-NH2
For the molecule B10, the “hAmylin-R funct. EC50 (pM)” value in test [1] came to 4 pM. In test [2], the “hCTR funct. EC50 (pM), tested with HSA” value came out at 2 pM.

B11: [N-terminal(C20 diacid-gGlu-5xOEG), des1, 30S, 31G]mimylin (peptide)
peptide: {C20 diacid-γGlu-AEEA-AEEA-AEEA-AEEA-AEEA}-ASELSTAALGRLSAELHELATLPRTETGSGSP-NH2
As to B11, the “hAmylin-R funct. EC50 (pM)” value in test [1] turned out to be 66 pM. Besides, in test [2], the “hCTR funct. EC50 (pM), tested with HSA” value is 27 pM.

B12: [N-terminal(C20 diacid-gGlu), 1A, 23Y, 30S, 31G]mimylin (peptide)
peptide: {C20 diacid-γGlu}-AASELSTAALGRLSAELHELATYPRTETGSGSP-NH2
SMILES: CC(C)C[C@H](NC(=O)[C@H](C)NC(=O)[C@H](C)NC(=O)[C@@H](NC(=O)[C@H](CO)NC(=O)[C@H](CC(C)C)NC(=O)[C@H](CCC(=O)O)NC(=O)[C@H](CO)NC(=O)[C@H](C)NC(=O)[C@H](C)NC(=O)CC[C@H](NC(=O)CCCCCCCCCCCCCCCCCCC(=O)O)C(=O)O)[C@@H](C)O)C(=O)NCC(=O)N[C@@H](CCCNC(=N)N)C(=O)N[C@@H](CC(C)C)C(=O)N[C@@H](CO)C(=O)N[C@@H](C)C(=O)N[C@@H](CCC(=O)O)C(=O)N[C@@H](CC(C)C)C(=O)N[C@@H](Cc1c[nH]cn1)C(=O)N[C@@H](CCC(=O)O)C(=O)N[C@@H](CC(C)C)C(=O)N[C@@H](C)C(=O)N[C@H](C(=O)N[C@@H](Cc1ccc(O)cc1)C(=O)N1CCC[C@H]1C(=O)N[C@@H](CCCNC(=N)N)C(=O)N[C@H](C(=O)N[C@@H](CCC(=O)O)C(=O)N[C@H](C(=O)NCC(=O)N[C@@H](CO)C(=O)NCC(=O)N[C@@H](CO)C(=O)N1CCC[C@H]1C(N)=O)[C@@H](C)O)[C@@H](C)O)[C@@H](C)O
On to B12, for which the “hAmylin-R funct. EC50 (pM)” value in test [1] is 82 pM. In addition, in test [2], the “hCTR funct. EC50 (pM), tested with HSA” value is 51 pM.

B13: [N-terminal(C20 diacid-gGlu-3xOEG), des1, 30S, 31G]mimylin (peptide)
peptide: {C20 diacid-γGlu-AEEA-AEEA-AEEA}-ASELSTAALGRLSAELHELATLPRTETGSGSP-NH2
Turning to B13, in test [1], the “hAmylin-R funct. EC50 (pM)” value was 68 pM. Further, the “hCTR funct. EC50 (pM), tested with HSA” value in test [2] turned out to be 25 pM.

B14: [N-terminal(C20 diacid-gGlu-4xOEG), des1, 30S, 31G]mimylin (peptide)
peptide: {C20 diacid-γGlu-AEEA-AEEA-AEEA-AEEA}-ASELSTAALGRLSAELHELATLPRTETGSGSP-NH2
In the case of B14, the “hAmylin-R funct. EC50 (pM)” value in test [1] was 62 pM. Also, the “hCTR funct. EC50 (pM), tested with HSA” value in test [2] was found to be 25 pM.
